ELISA CD38 Fc-Fusion protein (% Reactivity of MOR03087) data for two molecules are collected here from patent publication US20240309109A1.

Positions count from the first letter of the chain named.

The target of this assay is human CD38 Fc-fusion aa 45-300 (human) (UniProt P28907). Briefly: ELISA on CD38 Fc-fusion protein, IgG format.

B1: MOR06189 IgG (antibody, part only; not given: Light chain, constant regions, V domains shown, part only)
VH: QVQLVESGGGLVQPGGSLRLSCAASGFTFSSYYMNWVRQAPGKGLEWVSAINMIGNVTNYADSVKGRFTISRDNSKNTLYLQMNSLRAEDTAVYYCARDLPLVYTGFAYWGQGTLVTVSS
For B1, the ELISA CD38 Fc-Fusion protein (% Reactivity of MOR03087) came to 126%.

B2: MOR06190 IgG (antibody, part only; not given: Light chain, constant regions, V domains shown, part only)
VH: B1 VH with A50Y, M53P, I54N, N56M, V57M
For the molecule B2, the ELISA CD38 Fc-Fusion protein (% Reactivity of MOR03087) was 125%.
